B1: Protein BZR1 homolog 1 (Oryza sativa subsp. japonica (Rice)), Q7XI96 (parent)
chain: MTSGAAAAGRTPTWKERENNKRRERRRRAIAAKIFTGLRALGNYNLPKHCDNNEVLKALCREAGWVVEDDGTTYRKGCKPPPSSAGGASVGMSPCSSTQLLSAPSSSFPSPVPSYHASPASSSFPSPSRIDNPSASCLLPFLRGLPNLPPLRVSSSAPVTPPLSSPTASRPPKIRKPDWDVDPFRHPFFAVSAPASPTRGRRLEHPDTIPECDESDVSTVDSGRWISFQMATTAPTSPTYNLVNPGASTSNSMEIEGTAGRGGAEFEFDKGRVTPWEGERIHEVAAEELELTLGVGAK
partner: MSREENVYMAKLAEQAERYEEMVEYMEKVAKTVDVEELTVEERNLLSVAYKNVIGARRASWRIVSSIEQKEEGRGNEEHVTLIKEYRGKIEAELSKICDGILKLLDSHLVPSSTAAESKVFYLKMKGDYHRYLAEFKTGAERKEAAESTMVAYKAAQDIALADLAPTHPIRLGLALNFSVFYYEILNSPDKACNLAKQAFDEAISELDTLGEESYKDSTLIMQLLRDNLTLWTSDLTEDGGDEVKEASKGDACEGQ

Variants of: B1
Conditions: with 14333_orysj GF14C
S156G was tested, and the “effect of a mutation on the interaction” value was “disrupting interaction”.

Source: IntAct's records for PubMed 17699623
